The results in this text go back to the DeepSol protein solubility set.

This data set is described as follows: soluble on expression in E. coli; label from the status in PepcDB or PDB records.
In the case of “MGSDKIHHHHHHMKIQSLFFTLYGDYVKDSGGTISSKSLIVIFKEFGFSEGAIRAGLHRMKKAGLIVGIKGENRKVSYKLSEKGMLRLLEGTRRVYEKVRRRWDNKWRIVVYNIPENNRELRDKLRRELKWLGFGMLAQSTWISPNPIEDTLKNFINDHYGSSNGIQVDIFVANYLGEPKGLVEKCWNLSEVEQAYRAFLEKWTGVLEKVSSLKSNEAFVTRILLVHEYRKFLNIDPDLPEDLLPPNWIGYTAYDLFMKLREELTPKANEFFYKVYEP”, the “soluble on expression in E. coli” value was “not soluble”.

For the sequence “SSLRLPSAAELSGQWVLSGAEQHCDIRLNTDVLDGTTWKLAGDTACLQKLLPEAPVGWRPTPDGLTLTQADGSAVAFFSRNRDRYEHKLVDGSVRTLKKKA”, the “soluble on expression in E. coli” value is “soluble”.

In the case of “MGSDKIHHHHHHMDSLGEQPSNRAPVITISSGRYLAQIATYGGGIKSLTYDGRPLVETYPDDAFPPLNAGVVLAPWPNRTDAGAYDFQGQSYQLPITEPDRNNAIHGFVANAVWNIDLIRPARVILSTTIEPQQGWPWAIELAADYLLTDSGLRAQFTATTPHEAVPFGFGWHTYLSAQGAEVDKTTLRVGVDKQWMLDDRNLPTGELVQPTNDVSGGLPMAGKLLDDCFLAERTPVTTVLESQGVGVSMHCSEQFPWFQIFTPDPAWEMPYPGRGRSVAVEPMTTSPNGLNLGIDTIGAASPWHGTITISAYNKHS”, the “soluble on expression in E. coli” value is “not soluble”.

Turning to “MGSDKIHHHHHHMKKNQKISVEQLEVGTFIRLPISWKDHPFLFSSFKIKDAAQIELIKGLGLKDVFFDPEKSDVEPVTSENASTQKPDEQALNALKEQMISQKSAKIDEQQKLKRDLKKTEQQFNRSVSMMRSMVSKISSRPLNAVSEAKDLISNMTTMLLNSDNLALHLMGDAKNDEHIYHHSLNVAMLCMLMAKELGWSREEVETIGIGGLFHDIGKLKVPSNILNKRVPLTTPEENFIKQHPLMSINFLKLADSFPDEAKPLIANHHEYLDGSGYPQGLKADKLDKLSQLIAVVNEYDNLCNGTNQAKGKPPSIALGLLYKNYKNKLNVEYISKLIKMLGIYPPGSIIELSSGQFAMVMSVNLQKLLCPNIVVYDQLVPKDLAPIISLQDEGLSIVRSLPAAALPEKIHKYLNPREQISLGIGQN”, the “soluble on expression in E. coli” value is reported as “not soluble”.

Take “MEIEDGFYLIDDSNHDEDLDFSDFPWLDPDHPLFFPATQANNSKGSTRWDAVNKFSVENWYPHLRKHTFKSHFITLNYNDIHYLMGNIPPDYDSSKLESIFNKILSEFNNKEVFMRLSTRSPKDSKFLFEEASTIMSKDFVYWNENDNKHQQLVSFVASMLKAMKIKSGRKIIETIAQSPRVYNDLLALVSSSNQSDCTTNVILREWHDIRPDHEFRVFVSRRHRKESIVTAISQYFHFLYFDKSPADCFNFLDEEDKKAVIKKFENYVLKSVDPDVAKFLNFSSEQDDDESSDCIREYIVDLALIPVSQYHGEITDENIIEIGANTYVMVVIELNPFAPAATGSGLEHHHHHH”: the “soluble on expression in E. coli” value was “not soluble”.

With “MGSDKIHHHHHHMNKFNDIIDECDLSFSDWGKNYPRWSSLDAAWWKTFGGDNYLNKYKDGYIVFHREKIKEIARQYKIPSILLASVAHAEAGGMVDYFKYPTLFGRQVVHSYSGWPGKEKILPSPEKTSIGIIAMQIRVVAEIFGKNPSALRNAEATYISICLNKDNFNLTMVARHLYELINYDYPGTDTLNLTDEQFILAGARYNRGVQRSRSDLIRSINAEKDLIEVRDWTSYGRSMLNHREKITKLLYEVTTPPKNSDSN”, the “soluble on expression in E. coli” value is listed as “not soluble”.

On to “MAHHHHHHMRNVLFNGPMIPEIDAGYNVQVNGVSVNFLKDPFCFRNVVIENAYYKNKLLYKNFNDDNVNKNITNHIKRENIVELDKEFNECIKDSLNNNHVHIKKNEPDYKLNDIKSPIYKERTKYTPKIIEVIKTNYNVPHDERVKIHKENLMYMNNIEYKKANEIVEKVILTIKNETIQKPVELANDEPNNILKPNNIFKKMLL”, for which the “soluble on expression in E. coli” value is listed as “not soluble”.

Turning to “AKDALLLWCQMKTAGYPNVNVHNFTTSWRDGLAFNAIVHKHRPDLLDFESLKKCNAHYNLQNAFNLAEKELGLTKLLDPEDVNVDQPDEKSIITYVATYYHYFSKMKALAVEGK”, the “soluble on expression in E. coli” value is listed as “soluble”.

With “MSLGEETSYCFKEKSRGVLREWYAHNPYPSPREKRELAEATGMTTTQVSNWFKNRRQRDRAAEAKERENTENEGHHHHHH”, the “soluble on expression in E. coli” value is recorded as “soluble”.

Regarding “MSLRKASVFIVELKFEQESCPLGVVIPLEESKNKLASVKPLVDLTRADMEQVNQLILSRAGSDVQMIPEVANHLISSGGKRLRPMLTLASASMFGYEGDHHIKLATSVEFMHTATLLHDDVVDESDLRRGKSTARTIWGNQASVLVGDFLLGQAFRMMVDVGSLDALDVLSTAASVIAEGEVLQLSVAKNMETTEDDYLQVIRAKTAALFAAAAEVGPIVAKTDKASRSALKSYGMNLGLAFQLVDDVLDYGGKSADLGKNTGDDFREGKITLPVILSYRRGTQDERAFWRNAIENGESSDENLEKALGLITKYNGLGDTIGRATHYGTIARDALAPLPESPWKNALLEVIDFCIERLNEGHHHHHH”, the “soluble on expression in E. coli” value is “soluble”.

For “MGSDKIHHHHHHMFVQHDERSRPCCCSFISFKYLKTTTPQEEEMPKKPKPNNFHDELNFARFGVISMHSRIDREVTSWKSEFTINGRTFRIEAITPEGRPHGIDTDTLVAVETLFVASSCPEDNWVHTTAYEMRELMGLGNNGDSYHRLRQSLRRLYLTSVIVGRKTSVANASGRVTWDNVGVRFLEGIRYRDAEDANALSMLDGEATLSIRLGEQLAASIRNGVSQVLDGQLLHQLEQPPARALYRTLQAHRRQDDGTLLDQLRVPLAEWRLATGLTTERTDLVRRALEAAHDELLANRYLEAVSIEGRGKKAYASYTFAERGAADPALVVLLRHAGVTVSRATALAAQHPERVEEACGFWKAAGPARAARYVIPAAWLRTSSRIQANISFRKSSSNLAVNVSSGCRS”, the “soluble on expression in E. coli” value was “not soluble”.

For the sequence “MSLKPRACVVVYPGSNCDRDAYHALEINGFEPSYVGLDDKLDDYELIILPGGFSYGDYLRPGAVAAREKIAFEIAKAAERGKLIMGICNGFQILIEMGLLKGALLQNSSGKFICKWVDLIVENNDTPFTNAFEKGEKIRIPIAHGFGRYVKIDDVNVVLRYVKDVNGSDERIAGVLNESGNVFGLMPHPERAVEELIGGEDGKKVFQSILNYLKREGGSHHHHHH”, the “soluble on expression in E. coli” value is recorded as “soluble”.

As to “MNNEAVFSARLSSTQHVGLCRLCNSPLVHTFVDLGMSPPCESFVAADAANDVEPFYPLHAFVCDECFLVQLQEYVAPENIFTEYAYFSSFSDSWVAHAKRYCDMVIERFALGQSSFVVELASNDGYLLQHFLTSNIPMLGIEPAVNVAKVAIGKGIPTLTEFFNEALATDMAARGQKADLIIGNNVLAQVPDINDFVAGMKTLLKPEGVITLEFPHIEKLIAENQFDTIYHEHFSYFSLLTIEKMARRHGLKVFDVEEIPTHGGSLRVFFSHEDIRFPREARVDSLLARELNAGLDKIETYTAFAEAVRQTKRNLLSFLIRLKEMRKSICAYGAPGKGNTLLNYCGIGTDFIDFAVDRNPYKHGRLTPGMHIPIRPVSEIPHMKPDYVLILPWNLKNEIVAQMKDIRNWGGKFIVPIPDISIIDPKELVQ”, the “soluble on expression in E. coli” value is “not soluble”.

Regarding “MAHHHHHHKNTAKTAPNHDRIKNLIAKLNNSKDEDKKKNSPNGQINRTGDVYAKNELINKKKKHINFETFLRIFLETYEEPLSVDELITSFEFFDKEKSGYLDEEKVRFILKNSEERLADEDMKLFLNSLNLRDKDKIDYVMLAKRLKNVA”, the “soluble on expression in E. coli” value is reported as “soluble”.

Regarding “MAHHHHHHMKNALEQLDRHPLVNFQMDVSPLYSALKNIMQEQIQQAQLQEKISQRLTNLEAEVRSVGVRQKEFEDSLDALTPDAKLQTQQTLKELSTNIKNLTSDMKKVRYDVGEAMRTAVDAKRGIHDLESELLSIRQQQRDFSDLHQEVMREHLKFTAAVKDIRWKIEEQEKLIQEFSQVKPQNTSEVDESKLHGMLSALCERTDQNFRSVEESSFAVDAELTRLRADMKFVQNEVRMLRSELHRGGNHLRRDVGCRRQSPHGGSQGADKSALRNEEHLNGYESASTQGAL”, the “soluble on expression in E. coli” value is “not soluble”.

“MSLKAIIDNIKILEQNAINKGLDELILMENAGLNLAKLIKKEAKKIRIQRKIRKVKILFLLGGGNNASDGLVALRNLKHAKAYKIGFKENTLFKKQEQILQNYAFKFCKKEPNFKKFHIIIDCILGTGSNRCLDEKTSLIIQKVNQSKALKIACDIPTNLGFYPCFKADITFCMGALKEILLEDFAKEFVGRIKIANLGIRSKKFYPNSQAFLLEKKDLKTIDRKINANKGNFGHIYIVANASAGTLAGLGALNFGAGLVSLVAQKSFSPLLMLKEKIENNASAIALGMGLENLDFLKDEILQNTPLILDANCFLSEALLWYLNRKDVVITPHPKEFIKLYKMCFDENLDIETLQKNRFFYARKFSQNYDCVLVLKGANPIIVQKEKLFVVNLGNQALAKGGSGDVLSGMIAAHLGFGFSALEAAKNATLAHGLVAKKYKFNKNSFDALKLIKGLKCLEGHHHHHH”: the “soluble on expression in E. coli” value is recorded as “soluble”.

As for “MAHHHHHHMLRCSMLRRSMGPGASYVNTVFDTVAKRYDLMNDLLSLGIHRRWKQHFVNDYVRPCPGGKFLDVAGGTGDIAFRIIDGVRLKEEVFGLVPTLRYLTEVVVLDANENMIREGEARAAREGYLDVKWVIGKGEELPFDDMSFDSYTVSFGIRNFSDRPKALREAYRVLKVGGVLNVLEFSKVTCPFLSLPYDVWSYGFIPMAGQILVDRESYQYLVDSIRAFPDQEEFAKMISDAGFGYVRYENLTGGIACIHTAVKTEAVRVKPEKSPLESVATKAKEEKNSVDDEQLNPA”, the “soluble on expression in E. coli” value is “not soluble”.

On to “DPSVFSLPDSKLPGDKEFVPWQQDLDDSVKPTQQARPTVIRWSEGGKEVFISGSFNNWSTKIPLIKSHNDFVAILDLPEGEHQYKFFVDGQWVHDPSEPVVTSQLGTINNLIHVKKSDFEVFDALKLDSMESSETSCRV”, for which the “soluble on expression in E. coli” value was “not soluble”.

Take “MAHHHHHHMNERTSGGAMSTIQFGGTMTTTLSQAKNMDFSNDSPRRRRNRHNVILFPNHRDRLACDPLNFFCVYATYEYRWSDTTLEAERNIFALVDSMVAAVRKAFDDAFERWKNMPAFVQHAHTLRSAVSFSSALSTNTLLHMYSHADNVARHTTLRKTLGSMLPSLPAANPRQEMNICSASSAGRSTFSKGALPRAAHRERREEEEEAVMKNLAKQWIPPHNGPKCRLVLDIVASRKTLGDDPVISDPYRLGQKVFSFTRRNYLREVINTFVGISDSGVTLVGRDILYPFRSTGGGSPKPSVKMNSLSGNRRNLSGSAISGLPIDSGDILGVAASGGVAAKVSGFEQILANTIPVPRMVPVPPTNTEKVDNIRLLVCFPPNDISGSVA”: the “soluble on expression in E. coli” value is on record as “soluble”.

For “MSLTRFPVTALRSVDLGTPDLARSEAFYREVWGLERVGTAGGVVYLRATGRDHHVVALHRSARTELRAVTFRVADADDFEAISRNAIEQGATLIAAPAANMAPDGGTIMTLRSPEGGLLRFVHGDIRHDARPSRPELPERLAHVNLNSTDVDRTAAFYARALGFKLTDRSAAMAFVRCNSDHHAVVIAAAKVNGLNHVAFLMPTWEGVMRGSGRMIDAGYPIAWGVGRHGPGDNVFAYFIDPVGTVIEYTAEVLQVDDDYVVRGPEHWVWPPGRTDQWGIAPPKAEHVKAAQLAVGFAAEGHHHHHH”, the “soluble on expression in E. coli” value was “soluble”.

As to “MAGDPMKSSQYPAQDLKRRVLAWAVKLKVNPRAVRVQDMHRKWGSCSSTGTITLASDLLDQEQRFQDYVIVHELLHLRFATHGRMFKALMSAYVPGWRAMEGMGQHRICRKYRSTRSTVLEHHHHHH”, the “soluble on expression in E. coli” value was “not soluble”.
